Test results as given in patent US11407819B2, “Compositions and use of a fibrinogen binding motif present in EFB and COA for therapeutics and vaccines against Staphylococcus aureus” (priority 2013, dated 2022).
Entries after “also recorded” stand apart in the source; their conditions may differ.

Target: T1, rCoa-C binding to Fg (Homo sapiens, UniProt P02671+P02675+P02679)
T1 construct: full-length human Fibrinogen (diluted in PBS, Enzyme research); purchased Enzyme research; host or cells: Coa probe made in E. coli BL21
T1 sequence (P02671 20-629 limits assumed): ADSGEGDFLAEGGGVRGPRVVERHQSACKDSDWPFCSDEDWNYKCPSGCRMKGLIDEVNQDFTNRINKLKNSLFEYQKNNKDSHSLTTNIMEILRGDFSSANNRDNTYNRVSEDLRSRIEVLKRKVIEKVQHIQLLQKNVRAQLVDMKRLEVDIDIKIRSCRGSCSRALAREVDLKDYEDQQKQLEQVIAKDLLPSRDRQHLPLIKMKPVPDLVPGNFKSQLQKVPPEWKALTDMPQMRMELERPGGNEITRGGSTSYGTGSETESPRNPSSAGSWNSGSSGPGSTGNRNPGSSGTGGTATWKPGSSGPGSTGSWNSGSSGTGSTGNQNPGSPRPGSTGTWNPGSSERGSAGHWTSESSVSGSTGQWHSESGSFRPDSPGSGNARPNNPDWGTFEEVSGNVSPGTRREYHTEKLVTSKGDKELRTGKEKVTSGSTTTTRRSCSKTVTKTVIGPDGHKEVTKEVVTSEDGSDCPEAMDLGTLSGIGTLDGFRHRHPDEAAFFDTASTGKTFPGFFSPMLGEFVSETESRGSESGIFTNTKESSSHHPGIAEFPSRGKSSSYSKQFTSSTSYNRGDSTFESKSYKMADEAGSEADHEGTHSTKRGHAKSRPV
T1 sequence (P02675 31-491): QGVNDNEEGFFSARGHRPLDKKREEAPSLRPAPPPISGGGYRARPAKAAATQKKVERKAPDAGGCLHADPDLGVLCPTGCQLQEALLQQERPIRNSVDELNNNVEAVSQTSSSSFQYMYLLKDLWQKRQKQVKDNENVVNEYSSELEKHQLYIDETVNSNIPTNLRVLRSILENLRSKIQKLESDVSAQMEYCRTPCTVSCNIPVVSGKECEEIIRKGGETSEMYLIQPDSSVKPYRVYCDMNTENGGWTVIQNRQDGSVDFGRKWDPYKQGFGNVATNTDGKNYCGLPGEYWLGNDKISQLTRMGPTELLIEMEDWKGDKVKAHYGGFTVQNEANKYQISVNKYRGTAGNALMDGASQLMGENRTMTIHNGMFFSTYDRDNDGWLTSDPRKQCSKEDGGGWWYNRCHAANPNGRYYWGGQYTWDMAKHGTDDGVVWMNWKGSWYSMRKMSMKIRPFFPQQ
T1 sequence (P02679 27-453): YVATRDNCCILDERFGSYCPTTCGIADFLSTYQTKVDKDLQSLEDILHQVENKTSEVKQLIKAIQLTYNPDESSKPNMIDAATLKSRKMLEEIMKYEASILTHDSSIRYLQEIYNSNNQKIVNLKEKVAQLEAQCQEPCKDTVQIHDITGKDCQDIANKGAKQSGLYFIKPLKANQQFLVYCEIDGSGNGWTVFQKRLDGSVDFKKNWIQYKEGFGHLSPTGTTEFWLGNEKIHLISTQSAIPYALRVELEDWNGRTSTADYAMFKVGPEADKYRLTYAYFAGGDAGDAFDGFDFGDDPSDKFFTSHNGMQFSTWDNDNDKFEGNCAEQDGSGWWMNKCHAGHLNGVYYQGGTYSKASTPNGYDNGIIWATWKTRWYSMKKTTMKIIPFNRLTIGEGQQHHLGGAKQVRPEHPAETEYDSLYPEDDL
Assay: Competition ELISA, peptide inhibition of rCoa-C (Coa 311-636) binding to Fg
Conditions: increasing concentrations of peptides; 4 nM GST fusion protein
Description: The residues in Coa-RI important for fibrinogen binding. FIG. 12A is a panel of coa-RI variant peptides were synthesized where each residue in the sequence is individually replaced with Ala (or Ser when the native a.a. is Ala). […] Wells were coated with 0.25 μg/well Fg. Labels -1, -2, -3, -4, -5, -6, -7, -8, -9, -10, -11, -12, -13, -14, -15, -16, -17, -18, -19, -20, -21, -22, -23, -24, -25, -26, -27 refer to Coa-RI-1, Coa-RI-2, Coa-RI-3, Coa-RI-4, Coa-RI-5, Coa-RI-6, Coa-RI-7, Coa-RI-8, Coa-RI-9, Coa-RI-10, Coa-RI-11, Coa-RI-12, Coa-RI-13, Coa-RI-14, Coa-RI-15, Coa-RI-16, Coa-RI-17, Coa-RI-18, Coa-RI-19, Coa-RI-20, Coa-RI-21, Coa-RI-22, Coa-RI-23, Coa-RI-24, Coa-RI-25, Coa-RI-26, Coa-RI-27, respectively. FIG. 12C is a comparison of amino acid sequence of Efb-O with Coa-RI. FIG. 12D is a Fg-binding register of tandem repeats in Coa. Bold letters denote the residues that are important for Fg binding. Binding of a fixed concentration of rCoa-C (2 nM) to immobilized Fg was determined in the presence of a fixed concentration of these peptides (50 uM) (FIG. 12B). […]
FIG. 13A is a schematic presentation of Coa peptides. […] The Fg binding activities of these peptides were then investigated in a competition ELISA where the binding of rCoa-C to Fg coated microtiter wells were determined in the presence of increasing concentrations of peptide (FIG. 13B). […]

“sCoa-RI: synthetic peptide, first 27 residues of repeat region, Coa 506-532 (ETNAYNVTTHANGQVSYGARPTYKKPS)” was tested, and the “inhibition of rCoa-C binding to fibrinogen by overlapping Coa R peptides” value was “some inhibitory activity; also recorded: most potent inhibitor”.
